# Assay results: the supplement of paper PMC10065799, “High-throughput profiling of sequence recognition by tyrosine kinases and SH2 domains using bacterial peptide display” (eLife, 2023)
# Biological target: SHP2-C SH2;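 note: peptide library displayed on the E. coli surface as eCPX fusions, selected cells deep-sequenced, score is each peptide's frequency after selection divided by its frequency in the input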
# Assay: SH2 binding enrichment of the phosphorylated peptide, bacterial display (enrichment ratio); higher = better substrate or ligand; peptides without Tyr show the background
# 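Throughout, for phosphorylation enrichment, bacterial display: 11-residue human phosphosite peptides and single-mutation variants displayed on the E. coli surface, counted by deep sequencing, each peptide's frequency after selection divided by its frequency in the unselected input library; frequency after pTyr selection over input frequency; kinase dosed for 20-30% of maximal phosphorylation in three min.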
row,Sequence,SH2 binding enrichment
1,ETLLYYGCRRS [POR_Y564],0.767
2,QTEAPYRFIFM [PTPN11_Y511_Q510P_YF],0.751
3,SFPSYYTSHVQ [NEFL_Y443],1.2
4,CKRQFYLYKGK [RSPO4_Y112],1.15
5,MKGEFYRFLAE [YWHAG_Y131_D129E_YF],0.464
6,QTWKTYVRHQQ [SFI1_Y164_Q167H],0.946
7,KPGVNYYFQVS,2
8,KNRDVSSSDYF [USP24_Y2134_Y2134S],0.7
9,YSIDYYRVGGH [NTRK2_Y707_T704I],0.753
10,EVVGRYSVHFA [MLH1_Y183_N187Y_YF],0.798
11,DRLPSYLDKVR [KRT12_Y139_A137P],0.756
12,VDTFWYKLLKR [EPM2A_Y86_F88L],0.66
13,PEADKYRLPYA [FGG_Y300_T303P],0.612
14,LAVNPYGPPDP,0.7
15,CTLLPYYSARV [DGKE_Y269],0.889
16,FVKEPYIQSRF [HIPK4_Y175_YF],0.785

row,Sequence,SH2 binding enrichment
1,EKKKKYMLPLD [DNM2_Y563_E560K],0.436
2,SHTPSYCDEWL [RITA1_Y109_S113W],0.748
3,GKPENYRRLDI [VHL_Y175_V170G],0.754
4,NKYVAYIESQG [KDM4B_Y34],1.51
5,VNTMLYEKFTF [TEK_Y1108_T1106M_YF],0.736
6,GFILMYDITNK [RAB3C_Y110_E115K],0.727
7,RHSGSYFVTSV [APC_Y2838_L2839F],0.499
8,FRASFYRKGGC [ALK_Y1283_YF],0.502
9,SLFQFYFQQKG [CHKB_Y381_R377L],1.37
10,LWKWRYEELKE [CCDC102B_Y299_K298R],1.36
11,KPRKPYTIKKP [BRD2_Y715],1.73
12,GEFFRYLAEVA [YWHAG_Y133_D129E_YF],0.673
13,NLMPAYHKCIQ [CYP21A2_Y190_Y191H],0.5
14,GESQGYDIMEP [MSH2_Y863],0.85
15,KFSNQYKATIG [RAB7A_Y37],1.01

# Biological target: MERTK (UniProt Q12866)
# Sequence (Q12866 whole entry, looked up): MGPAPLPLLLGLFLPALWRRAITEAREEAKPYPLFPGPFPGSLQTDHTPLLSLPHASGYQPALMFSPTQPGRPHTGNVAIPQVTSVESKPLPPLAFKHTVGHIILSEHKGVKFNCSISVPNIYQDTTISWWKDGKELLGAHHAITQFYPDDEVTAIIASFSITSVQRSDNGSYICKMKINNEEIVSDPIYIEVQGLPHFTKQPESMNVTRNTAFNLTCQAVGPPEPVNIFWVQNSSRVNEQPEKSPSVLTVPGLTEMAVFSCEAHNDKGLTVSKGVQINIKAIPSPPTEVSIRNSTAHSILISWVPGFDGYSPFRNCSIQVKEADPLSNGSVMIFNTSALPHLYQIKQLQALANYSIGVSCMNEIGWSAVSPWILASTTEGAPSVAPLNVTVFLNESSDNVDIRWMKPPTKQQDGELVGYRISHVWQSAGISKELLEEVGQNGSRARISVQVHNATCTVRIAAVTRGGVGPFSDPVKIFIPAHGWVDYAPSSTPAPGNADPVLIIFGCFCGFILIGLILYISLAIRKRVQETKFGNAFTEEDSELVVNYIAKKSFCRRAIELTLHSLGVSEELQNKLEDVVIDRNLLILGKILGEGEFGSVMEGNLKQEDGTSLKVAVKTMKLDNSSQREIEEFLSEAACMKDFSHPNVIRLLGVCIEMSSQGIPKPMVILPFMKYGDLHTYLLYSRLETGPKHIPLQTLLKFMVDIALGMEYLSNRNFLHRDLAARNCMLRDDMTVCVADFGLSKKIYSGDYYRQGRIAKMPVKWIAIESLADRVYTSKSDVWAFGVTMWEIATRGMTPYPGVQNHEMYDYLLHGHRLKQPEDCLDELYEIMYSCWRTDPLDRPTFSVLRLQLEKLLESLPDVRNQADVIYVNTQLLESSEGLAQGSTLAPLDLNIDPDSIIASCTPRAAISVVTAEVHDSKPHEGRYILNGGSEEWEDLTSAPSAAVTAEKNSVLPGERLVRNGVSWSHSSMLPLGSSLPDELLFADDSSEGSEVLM
# Assay: phosphorylation enrichment, bacterial display (enrichment ratio); higher = better substrate or ligand; peptides without Tyr show the background
row,Sequence,phosphorylation enrichment
1,AKFPSYEKNKK [FOXL2_Y91_F90S],0.499
2,ETLLYYGCRRS [POR_Y564],1.18
3,QTEAPYRFIFM [PTPN11_Y511_Q510P_YF],0.595
4,SFPSYYTSHVQ [NEFL_Y443],5.38
5,CKRQFYLYKGK [RSPO4_Y112],0.331
6,MKGEFYRFLAE [YWHAG_Y131_D129E_YF],0.372
7,QTWKTYVRHQQ [SFI1_Y164_Q167H],0.49
8,KPGVNYYFQVS,0.873
9,KNRDVSSSDYF [USP24_Y2134_Y2134S],0.442
10,YSIDYYRVGGH [NTRK2_Y707_T704I],8.42
11,EVVGRYSVHFA [MLH1_Y183_N187Y_YF],0.448
12,DRLPSYLDKVR [KRT12_Y139_A137P],0.656
13,VDTFWYKLLKR [EPM2A_Y86_F88L],0.342
14,PEADKYRLPYA [FGG_Y300_T303P],0.477
15,LAVNPYGPPDP,0.594
16,CTLLPYYSARV [DGKE_Y269],0.508
17,FVKEPYIQSRF [HIPK4_Y175_YF],0.39

row,Sequence,phosphorylation enrichment
1,EKKKKYMLPLD [DNM2_Y563_E560K],0.504
2,SHTPSYCDEWL [RITA1_Y109_S113W],0.553
3,GKPENYRRLDI [VHL_Y175_V170G],0.337
4,NKYVAYIESQG [KDM4B_Y34],0.449
5,VNTMLYEKFTF [TEK_Y1108_T1106M_YF],8.45
6,GFILMYDITNK [RAB3C_Y110_E115K],0.835
7,RHSGSYFVTSV [APC_Y2838_L2839F],0.676
8,FRASFYRKGGC [ALK_Y1283_YF],0.579
9,SLFQFYFQQKG [CHKB_Y381_R377L],0.403
10,LWKWRYEELKE [CCDC102B_Y299_K298R],0.909
11,KPRKPYTIKKP [BRD2_Y715],0.644
12,GEFFRYLAEVA [YWHAG_Y133_D129E_YF],0.438
13,NLMPAYHKCIQ [CYP21A2_Y190_Y191H],0.518
14,GESQGYDIMEP [MSH2_Y863],0.472
15,KFSNQYKATIG [RAB7A_Y37],0.4
16,TDIVAYSGRVQ [SPTBN2_Y477],0.885

# Biological target: EPHB2 (UniProt P29323)
# Sequence (P29323 whole entry, looked up): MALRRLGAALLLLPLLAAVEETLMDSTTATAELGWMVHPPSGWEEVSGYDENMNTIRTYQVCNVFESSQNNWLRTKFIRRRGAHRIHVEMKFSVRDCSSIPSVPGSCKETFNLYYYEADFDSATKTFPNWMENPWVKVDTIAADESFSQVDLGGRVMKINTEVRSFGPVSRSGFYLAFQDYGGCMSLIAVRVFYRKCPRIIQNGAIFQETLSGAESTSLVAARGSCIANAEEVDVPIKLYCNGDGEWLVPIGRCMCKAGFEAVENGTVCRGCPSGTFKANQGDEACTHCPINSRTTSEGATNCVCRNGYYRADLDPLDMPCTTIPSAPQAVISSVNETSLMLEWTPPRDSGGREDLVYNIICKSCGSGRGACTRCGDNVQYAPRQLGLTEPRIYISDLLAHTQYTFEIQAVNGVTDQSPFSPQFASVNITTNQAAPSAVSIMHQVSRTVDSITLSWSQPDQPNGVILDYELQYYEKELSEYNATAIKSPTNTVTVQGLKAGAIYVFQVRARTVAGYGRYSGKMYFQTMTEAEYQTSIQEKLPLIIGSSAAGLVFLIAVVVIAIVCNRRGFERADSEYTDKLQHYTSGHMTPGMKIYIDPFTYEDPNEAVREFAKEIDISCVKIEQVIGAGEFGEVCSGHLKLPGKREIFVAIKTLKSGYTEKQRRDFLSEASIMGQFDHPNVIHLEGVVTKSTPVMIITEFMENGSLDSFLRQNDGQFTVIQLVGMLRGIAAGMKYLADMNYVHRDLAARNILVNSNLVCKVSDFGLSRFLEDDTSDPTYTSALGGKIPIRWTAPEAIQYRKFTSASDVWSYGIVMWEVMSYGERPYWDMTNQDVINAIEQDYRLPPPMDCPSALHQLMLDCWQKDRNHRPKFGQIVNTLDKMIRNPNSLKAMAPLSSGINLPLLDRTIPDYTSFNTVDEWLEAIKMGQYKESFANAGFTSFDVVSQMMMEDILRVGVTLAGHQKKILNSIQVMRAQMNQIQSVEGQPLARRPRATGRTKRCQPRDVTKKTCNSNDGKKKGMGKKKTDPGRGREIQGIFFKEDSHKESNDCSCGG
# Assay: as above
row,Sequence,phosphorylation enrichment
1,AKFPSYEKNKK [FOXL2_Y91_F90S],0.396
2,ETLLYYGCRRS [POR_Y564],0.506
